In doi:10.1101/2022.11.03.514279 (bioRxiv, 2022):

B1: pVII (f1 phage minor capsid protein) (natural protein, f1 filamentous phage, UniProt P69534 1-33, looked up)
chain: MEQVADFDTIYQAMIQISVVLCFALGIIAGGQR

How the values were obtained:
cryo-EM structure = biological target: the molecule itself; test: cryo-EM structure
[1] = biological target: B1; test: cryo-EM structure

Row | Binder | stoichiometry N (cryo-EM structure) | binding result [1]
1 | pVI (f1 phage minor capsid protein) (natural protein, f1 filamentous phage, UniProt P69531 1-112, looked up) MPVLLGIPLLLRFLGFLLVTLFGYLLTFLKKGFGKIAIAISLFLALIIGLNSILVGYLSDISAQLPSDFVQGVQLILPSNALPCFYVILSVKAAIFIFDVKQKIVSYLDWDK | 5 | 
2 | MSVLVYSFASFVLGWCLRSGITYFTRLMETSS (natural protein, f1 filamentous phage, UniProt P69537 1-32, looked up) [pIX (f1 phage minor capsid protein)] |  | binds
3 | B1 | 5 | 
